Measurements published in article PMC3312907, “Monoclonal Antibodies to Meningococcal Factor H Binding Protein with Overlapping Epitopes and Discordant Functional Activity” (PLoS ONE, 2012).

Key:
[1] = biological target: recombinant factor H binding protein (fHbp) ID 1 (Neisseria meningitidis (strain MC58)) (UniProt Q9JXV4); assay: ELISA; competitive inhibition: wells coated with 2 µg/ml fHbp ID 1; dilutions of the first mAb together with 1 µg/ml of the second mAb, 37°C, 2 h; detection with subclass-specific (IgG3 or IgG2a) secondary antibody
[2] = biological target: murine anti-fHbp mAb JAR 1 (IgG3); assay: ELISA; details: mAb at 10 µg/ml (highest point of titration); wells coated with 2 µg/ml of wild-type or mutant fHbp; parent: est. 2.4; read off a plot
[3] = biological target: murine anti-fHbp mAb JAR 5 (IgG2b); assay: ELISA; details: mAb at 10 µg/ml (highest point of titration); wells coated with 2 µg/ml of wild-type or mutant fHbp; parent: est. 3.7; read off a plot
[4] = biological target: murine anti-fHbp mAb502 (IgG2a); assay: ELISA; details: wells coated with 2 µg/ml of wild-type or mutant fHbp, read off a plot
[5] = biological target: T1, fHbp ID 1 on live bacteria of N. meningitidis group B strain H44/76 (Neisseria meningitidis (endogenous in …, UniProt Q9JXV4)); assay: flow cytometry on cells; as a6, for the anti-fHbp mAb added at 2 or 50 µg/ml for 30 min at room temperature to live bacteria; read-out is bound fH; details: one partner purified
T1 construct: source: endogenous, live bacteria of group B strain H44/76

[6] = biological target: T2, recombinant factor H binding protein (fHbp) ID 1 (Neisseria meningitidis (strain MC58), UniProt Q9JXV4); assay: ELISA; wells coated with 2 µg/ml recombinant fHbp in PBS overnight at 4°C; dilutions of mAb overnight at 4°C; bound mAb detected with anti-mouse or anti-human IgG (Fc specific)-alkaline phosphatase (legend of Figure 5: anti-human kappa light chain); details: both partners purified
T2 construct: also called wild-type (WT) fHbp ID 1; rfHbp; source: E. coli (pET21b), purified (Ni-NTA agarose)

[7] = mAb at 10 µg/ml (highest point of titration), parent: est. 3.6

**Q.** How did the percent inhibition of mAb502 binding to fHbp [1] turn out when “murine anti-fHbp mAb JAR 1 (IgG3) (antibody)” was run?
**A.** > 90%

**Q.** What does the source list for “recombinant factor H binding protein (fHbp) ID 1 (from UniProt Q9JXV4) D142A”?
**A.** response [2]: 2.3 OD 405nm; response [3]: 3.6 OD 405nm; response [4, 7]: 3.5 OD 405nm; response ([4]; mAb at about 0.08 µg/ml (point read from the log x axis, est.), parent: est. 3.7): 1.4 OD 405nm

**Q.** Which response [2] does the source give for “recombinant factor H binding protein (fHbp) ID 1 (from UniProt Q9JXV4) K143A” here?
**A.** 1.3 OD 405nm

**Q.** And the response [3]?
**A.** 3.8 OD 405nm

**Q.** What about the response [4, 7] of the same molecule?
**A.** 3.6 OD 405nm

**Q.** For “recombinant factor H binding protein (fHbp) ID 1 (from UniProt Q9JXV4) R204A”, which response [2] is on record?
**A.** 0.15 OD 405nm

**Q.** And the response [3]?
**A.** 3.4 OD 405nm

**Q.** And the response [4, 7]?
**A.** 0.3 OD 405nm

**Q.** How did the response [2] turn out when “recombinant factor H binding protein (fHbp) ID 1 (from UniProt Q9JXV4) R204H” was run?
**A.** 2.2 OD 405nm

**Q.** And the response [3]?
**A.** 3.6 OD 405nm

**Q.** What about the response [4, 7] of the same molecule?
**A.** 0.3 OD 405nm

B1: chimeric human IgG1 mouse anti-fHbp JAR 1 mAb (antibody, V domains shown)
VH: QVQLQQPGTELVMPGASVKLSCKASGYTFTNYWMHWVKQRPGQGLEWIGEIDPSDNYTKYNQKFKGKATLTVHTSSTTAYIQLSSLTSEDSAVYYCARGEVTTYLDYWGQGTTLIVSS
VL: DILMTQSPSSLTVSAGEKVTMSCKSSQSLLASDNQNNFLAWHQQKPGQSPKMLIIWASTRVSGVPDRFIGSGSGTDFTLTINSVQAEDLAVYYCQQSYSAPLTFGAGTKLELQ
notes: also called chimeric JAR 1; chimeric human IgG1 JAR 1; source: transfected CHO cells, serum-free medium, purified from supernatant (HiTrap protein G)
**Q.** Does B1 bind [5]?
**A.** binds

**Q.** Does B1 bind [6]?
**A.** binds

B2: chimeric human IgG1 mouse anti-fHbp mAb502 (antibody, V domains shown)
VH: EVQLQESGPGLAKPSQTLSLTCSVTGYSITSDFWNWIRKFPGNKLEYMGYISYSGSTDYNPSLKSRISITRDTSKNQYYLQLNSVTAEDTATYYCARYFGSSYAMDHWGQGTSVTVSS
VL: DIQMTQSPASLSASVGETVTITCRASGNIHNYLAWYQQKQGKSPQLLVYTAKTLAEGVPSRFSGSGSGTQFSLKINSLQPEDFGSYYCQHFWSTPWTFGGGTKLEIK
notes: also called chimeric mAb502; chimeric human IgG1 mAb502; source: transfected CHO cells, serum-free medium, purified from supernatant (HiTrap protein G)
**Q.** What does the source list for B2?
**A.** binding result [5]: binds; binding result [6]: binds
